Patent US20240101959A1, “USE OF IL-2R-BETA-GAMMA AGONIST PEPTIDES IN CELL MANUFACTURING” (MEDIKINE, INC., priority 2022, published 2024)
Positions of bridges follow the written chain, without caps; N, C: chain ends. No end group written: not given here.

T1: hu-IL-2Rβ subunit (human, UniProt P14784 27-240, limits assumed)
T1 construct: also called human interleukin-2 receptor subunit β; CD122
T1 sequence (looked up): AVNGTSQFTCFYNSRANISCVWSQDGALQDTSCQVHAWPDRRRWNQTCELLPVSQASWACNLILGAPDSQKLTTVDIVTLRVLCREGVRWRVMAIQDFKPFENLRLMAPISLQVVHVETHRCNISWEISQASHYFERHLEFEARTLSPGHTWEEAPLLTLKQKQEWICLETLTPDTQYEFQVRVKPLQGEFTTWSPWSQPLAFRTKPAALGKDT


Biological target: T1, hu-IL-2Rβ subunit
Assay: phage ELISA competition assay

Binder	IC50 [µM]
WYPCWMAQLGELCDLGPTESNL [SEQ ID NO 157]	< 100
HASWLPCWLAQLGELCDLEPNP [SEQ ID NO 123]	< 100
YYPCWMAQLGELCDLE [SEQ ID NO 129]	< 100
KLQSWRWYPCWMAQLGELCDLD [SEQ ID NO 135]	< 100
YRGWLPCWRAKLGDLCDLGQPM (disulfide 7-16 (inferred)) [SEQ ID NO 151]	< 100
RDESAGYYPCWIAQLGELCDLE [SEQ ID NO 141]	< 100
SWHAETWYPCWLAQVGELCDLD [SEQ ID NO 131]	< 100
IGSWWPCWMAQLGELCDLEPEL [SEQ ID NO 154]	< 100
QDEAVEWFPCWMARLGELCDLE [SEQ ID NO 84]	< 100
WWPCWMAQLGDLCDLEETSGGT [SEQ ID NO 156]	< 100
WYPCWMAQLGELCDLDESTRLT (disulfide 4-13 (inferred)) [SEQ ID NO 153]	< 100
YYPCWMARLGELCDLD [SEQ ID NO 85]	< 100
GEAWYPCWLARLGELCDMDPRV [SEQ ID NO 152]	< 100
NNSREGWFPCWLAKLGDLCDLD [SEQ ID NO 128]	< 100
WQREWRWFPCWMAKLGDMCDLD [SEQ ID NO 83]	< 100
KMHKAVWLPCWMAQVGELCDLE [SEQ ID NO 132]	< 100
RQAWYPCWMAQLGELCDLEAEL [SEQ ID NO 126]	< 100
SVVVNNWLPCWMAQLGELCDLD [SEQ ID NO 86]	< 100

Continued, values first:

IC50 [µM]	Binder
< 100	WYPCWMAQPGELCDVD [SEQ ID NO 146]
< 100	FYPCWMANLGELCDLDFLRELN [SEQ ID NO 122]
< 100	GTTWYPCWLAQLGELCDLDVLE [SEQ ID NO 155]
< 100	NEPEGGFYPCWLAQLGELCDLH (disulfide 10-19 (inferred)) [SEQ ID NO 136]
< 100	AKGWDTWKPCWLANLGELCDLE [SEQ ID NO 140]
< 100	VRPMGVWYPCWIAQLGELCDLV [SEQ ID NO 149]
< 100	VPRWYPCWIAQLGELCDLDSDD [SEQ ID NO 150]
< 100	NGAWYPCWMAQVGELCDLEERW [SEQ ID NO 124]
< 100	QGPVRLWYPCWMAQLGELCDLD [SEQ ID NO 145]
